Two molecules from PMC8837555, “CRISPR and biochemical screens identify MAZ as a cofactor in CTCF-mediated insulation at Hox clusters” can be followed below.

For the data set, the target named is T1, FLAG-MAZ (Mus musculus, UniProt P56671 1-477).
T1 sequence: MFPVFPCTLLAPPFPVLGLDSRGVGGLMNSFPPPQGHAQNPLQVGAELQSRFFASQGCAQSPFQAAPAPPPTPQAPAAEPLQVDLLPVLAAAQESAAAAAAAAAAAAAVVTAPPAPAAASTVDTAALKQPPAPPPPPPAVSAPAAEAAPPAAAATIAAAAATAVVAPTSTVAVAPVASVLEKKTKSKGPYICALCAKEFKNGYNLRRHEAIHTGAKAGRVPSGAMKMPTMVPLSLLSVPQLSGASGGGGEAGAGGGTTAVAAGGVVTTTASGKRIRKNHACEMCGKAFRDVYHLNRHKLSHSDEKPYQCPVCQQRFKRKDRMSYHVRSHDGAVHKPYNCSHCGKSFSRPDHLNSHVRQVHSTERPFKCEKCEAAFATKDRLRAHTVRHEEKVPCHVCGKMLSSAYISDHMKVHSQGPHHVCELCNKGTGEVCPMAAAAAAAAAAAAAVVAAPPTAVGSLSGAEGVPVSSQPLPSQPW
The data set can be described thus: EMSA; 1 mM ZnSO4, 5 mM MgCl2, salmon sperm DNA; 25 mM HEPES (pH not stated), 50 mM NaCl, 5% glycerol, 5 mM MgCl2, 1 mM ZnSO4, 2 μg salmon sperm DNA, 40 pM probe, 0.25-0.75 μg MAZ, 4 h at 30 °C; 5% gel, 0.25x. The conditions noted are these: protein: recombinant; tags: FLAG (CβF vector); label: 32P (T4 PNK); blunt. (In EMSA bound probe runs differently from free probe, usually more slowly.)

B1: maz.hoxd48 (WT) (dsDNA)
DNA 1: CCTGGGTGGGAGGGGAATGGGAGGACACAAGAGCCACCCGTTCTTCTGCCCCGCCTTCCACCTCAG
DNA 2: CTGAGGTGGAAGGCGGGGCAGAAGAACGGGTGGCTCTTGTGTCCTCCCATTCCCCTCCCACCCAGG
As to B1, the binding result is reported as “binds”.

B2: maz.hoxa56.WT (dsDNA)
DNA 1: GGAGTTGGGTGGAGGCAAGAGGGGTGGCGCGCGCGCCCTG
DNA 2: CAGGGCGCGCGCGCCACCCCTCTTGCCTCCACCCAACTCC
B2: the binding result is “binds”.
